Measurements as given in US20240141039A1 (AGENUS, published 2024).
Values belong to the binder of their own block, whether it stands above or below them.

How the values were obtained:
[1] = molecular target: T1, wild type full-length cynomolgus monkey CD96 isoform 2 expressed on CHO cells (cynomolgus monkey, UniProt A0A2K5TWV6 22-569); assay: flow cytometry, cynomolgus CD96 (isoform 2) CHO cells, 1 experiment
T1 construct: whole, on cells; also called cynomolgus CD96-CHO cells; cynomolgus CD96-CHO (isoform 2)
T1 sequence: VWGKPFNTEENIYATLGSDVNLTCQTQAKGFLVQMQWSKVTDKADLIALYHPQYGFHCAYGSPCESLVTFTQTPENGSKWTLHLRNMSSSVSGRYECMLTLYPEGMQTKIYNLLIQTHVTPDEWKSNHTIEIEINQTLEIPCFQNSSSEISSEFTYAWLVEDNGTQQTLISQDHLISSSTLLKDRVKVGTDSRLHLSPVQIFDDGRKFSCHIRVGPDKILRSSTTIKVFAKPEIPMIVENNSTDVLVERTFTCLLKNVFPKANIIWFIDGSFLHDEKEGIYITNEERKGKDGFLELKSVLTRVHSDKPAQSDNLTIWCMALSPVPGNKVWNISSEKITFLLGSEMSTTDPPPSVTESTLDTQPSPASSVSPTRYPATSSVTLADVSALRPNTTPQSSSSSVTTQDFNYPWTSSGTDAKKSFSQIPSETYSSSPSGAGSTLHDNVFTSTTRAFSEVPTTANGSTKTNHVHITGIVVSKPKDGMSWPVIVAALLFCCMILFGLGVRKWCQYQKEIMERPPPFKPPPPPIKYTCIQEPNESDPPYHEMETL

[2] = molecular target: T1, wild type full-length cynomolgus monkey …; assay: flow cytometry on CHO cells expressing cynomolgus CD96 isoform 2, PE anti-human IgG Fc detection
[3] = molecular target: T2, wild type full-length cynomolgus monkey TIGIT expressed on CHO cells (cynomolgus monkey, UniProt A0A7N9I9V4 89-312); assay: flow cytometry on CHO cells expressing cynomolgus TIGIT, PE anti-human IgG Fc detection
T2 construct: whole, on cells; also called cynomolgus TIGIT-CHO cells
T2 sequence (A0A7N9I9V4 entry or part of it): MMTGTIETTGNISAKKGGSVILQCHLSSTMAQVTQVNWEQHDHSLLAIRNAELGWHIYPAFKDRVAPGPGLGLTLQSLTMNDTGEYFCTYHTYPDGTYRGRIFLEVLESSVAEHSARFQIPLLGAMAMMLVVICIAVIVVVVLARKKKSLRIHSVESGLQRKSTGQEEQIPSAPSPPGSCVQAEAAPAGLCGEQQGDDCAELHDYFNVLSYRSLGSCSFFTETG

[4] = molecular target: T3, wild type full-length human TIGIT expressed on cells (human, UniProt Q495A1 22-244); assay: flow cytometry, blocking of human CD155-Fc-PE binding to CHO cells expressing human TIGIT
T3 construct: whole, on cells; also called human TIGIT-CHO; human TIGIT CHO cells
T3 sequence (looked up): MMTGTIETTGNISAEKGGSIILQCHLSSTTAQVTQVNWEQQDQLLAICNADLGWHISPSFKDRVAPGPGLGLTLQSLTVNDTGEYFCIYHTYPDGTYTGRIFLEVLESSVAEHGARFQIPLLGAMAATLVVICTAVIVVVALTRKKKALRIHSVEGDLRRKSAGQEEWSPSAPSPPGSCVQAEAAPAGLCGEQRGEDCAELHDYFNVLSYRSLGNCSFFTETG
Method: (§1) A 4× concentrated intermediate stock of each antibody was prepared in a microplate. Antibodies were serially diluted 1-to-4 in FACS buffer. […] Lastly, 25 μL of human TIGIT-CHO cells, prepared as described above, were added to each well. After a 30-minute incubation on ice, the cells were washed twice with cold FACS Buffer, and the cells were analyzed by flow cytometry (BD LSR Fortessa Flow Cytometer). The data were analyzed using the FlowJo software by sequentially gating on the FSC-A vs. SSC-A and SSC-H vs. SSC-A. Mean fluorescence intensity (MFI) values for PE were calculated, and the data were plotted by GraphPad Prism software and analyzed as described above.

[5] = molecular target: T3, wild type full-length human TIGIT …; assay: flow cytometry, blocking of CD155-Fc-PE binding to human TIGIT CHO cells, geomean of 3 experiments
Method: as §1

[6] = molecular target: T3, wild type full-length human TIGIT …; assay: flow cytometry, human TIGIT CHO cells, geomean of 2 experiments
Method: (§2) For the antibody binding assay, a frozen aliquot of human TIGIT-CHO cells was thawed at 37° C. and then transferred to a tube containing DPBS supplemented with 0.5% Bovine Serum Albumin and 0.05% Sodium Azide (FACS Buffer). Cells were centrifuged at 300 g for five minutes. The supernatant was discarded, and cells resuspended in FACS buffer were seeded in a 96-well U-bottom tissue culture plate at a density of 2×10⁵ cells per well in 50 μL. In a separate microplate, a 2× concentrated intermediate stock of each antibody was prepared. Antibodies were serially diluted 1-to-4 in FACS buffer. A total of 11 working dilutions ranging from 60 μg/mL to 0.000057 μg/mL were prepared. Fifty microlitres of each dilution were then transferred to the microplate containing human TIGIT-CHO cells. The cells were then incubated for 45 minutes at 4° C. […] After a 30-minute incubation on ice, the cells were washed twice with cold FACS Buffer, and the cells were analyzed by flow cytometry (BD LSR Fortessa Flow Cytometer). The data were analyzed using the FlowJo software by sequentially gating the FSC-A vs. SSC-A, and SSC-H vs. SSC-A. Mean fluorescence intensity (MFI) values for PE were calculated, and the data were plotted by GraphPad Prism software.

[7] = molecular target: T3, wild type full-length human TIGIT …; assay: flow cytometry on CHO cells expressing human TIGIT, PE anti-human IgG Fc detection
Method: as §2

[8] = molecular target: T2, wild type full-length cynomolgus monkey …; assay: flow cytometry, blocking of human CD155-Fc-PE binding to CHO cells expressing cynomolgus TIGIT

- EC50 [1]: 1.04 µg/mL
- EC50 (read off the curve) [2]: ~1 µg/mL
- EC50 (read off the curve) [3]: ~0.2 µg/mL
B1: anti-TIGIT×CD96 multispecific molecule BA123 (bispecific antibody, human IgG1, kappa, lambda)
heavy 1: QVQLVQSGAEVKKPGASVKVSCKASGYTFTSYGISWVRQAPGQGLEWMGWISAYNANTNYAQKLQGRVTMTTDTSTSTAYMELRSLRSDDTAVYYCARSAGVLGGMDVWGRGTLVTVSSASTKGPSVFPLAPSSKSTSGGTAALGCLVKDYFPEPVTVSWNSGALTSGVHTFPAVLQSSGLYSLSSVVTVPSSSLGTQTYICNVNHKPSNTKVDKRVEPKSCDKTHTCPPCPAPELLGGPDVFLFPPKPKDTLMISRTPEVTCVVVDVSHEDPEVKFNWYVDGVEVHNAKTKPREEQYNSTYRVVSVLTVLHQDWLNGKEYKCKVSNKALPAPIEKTISKAKGQPREPQVYTLPPSREEMTKNQVSLSCAVKGFYPSDIAVEWESNGQPENNYKTTPPVLDSDGSFFLVSKLTVDKSRWQQGNVFSCSVMHEALHNHYTQKSLSLSPG
light 1: not shown
heavy 2: EVQLVQSGAEVKKPGSSVKVSCKASGYTFASYGISWVRQAPGQGLEWMGGITPFFNRVDVAEKFQGRVTITADKSTSTAYIELSSLRSEDTAVYYCARDLRRGGVGDAFDIWGRGTLVTVSSASTKGPSVFPLAPSSKSTSGGTAALGCLVKDYFPEPVTVSWNSGALTSGVHTFPAVLQSSGLYSLSSVVTVPSSSLGTQTYICNVNHKPSNTKVDKRVEPKSCDKTHTCPPCPAPELLGGPDVFLFPPKPKDTLMISRTPEVTCVVVDVSHEDPEVKFNWYVDGVEVHNAKTKPREEQYNSTYRVVSVLTVLHQDWLNGKEYKCKVSNKALPLPEEKTISKAKGQPREPQVYTLPPSREEMTKNQVSLWCLVKGFYPSDIAVEWESNGQPENNYKTTPPVLDSDGSFFLYSKLTVDKSRWQQGNVFSCSVMHEALHNHYTQKSLSLSPG
light 2: QSALTQPRSVSGSPGQSVTISCTGTSPDVGSHAYRSWYQQHPGKAPKLMIYEVSYRPSGVSNRFSGSKSGNTASLTISGLQAEDEADYYCSSYPPSSATVFGAGTKLTVLGQPKAAPSVTLFPPSSEELQANKATLVCLISDFYPGAVTVAWKADSSPVKAGVETTTPSKQSNNKYAASSYLSLTPEQWKSHRSYSCQVTHEGSTVEKTVAPTEC
notes: copies: 1 + 1 + 1 + 1

- IC50 (read off the curve) [4]: ~0.01 µg/mL
- IC50 [5]: 0.0084 µg/mL
B2: anti-TIGIT monospecific antibody BA148 (antibody, human IgG1, lambda)
heavy: EVQLVQSGAEVKKPGSSVKVSCKASGYTFASYGISWVRQAPGQGLEWMGGITPFFNRVDVAEKFQGRVTITADKSTSTAYIELSSLRSEDTAVYYCARDLRRGGVGDAFDIWGRGTLVTVSSASTKGPSVFPLAPSSKSTSGGTAALGCLVKDYFPEPVTVSWNSGALTSGVHTFPAVLQSSGLYSLSSVVTVPSSSLGTQTYICNVNHKPSNTKVDKRVEPKSCDKTHTCPPCPAPELLGGPDVFLFPPKPKDTLMISRTPEVTCVVVDVSHEDPEVKFNWYVDGVEVHNAKTKPREEQYNSTYRVVSVLTVLHQDWLNGKEYKCKVSNKALPLPEEKTISKAKGQPREPQVYTLPPSREEMTKNQVSLTCLVKGFYPSDIAVEWESNGQPENNYKTTPPVLDSDGSFFLYSKLTVDKSRWQQGNVFSCSVMHEALHNHYTQKSLSLSPGK
light: QSALTQPRSVSGSPGQSVTISCTGTSPDVGSHAYRSWYQQHPGKAPKLMIYEVSYRPSGVSNRFSGSKSGNTASLTISGLQAEDEADYYCSSYPPSSATVFGAGTKLTVLGQPKAAPSVTLFPPSSEELQANKATLVCLISDFYPGAVTVAWKADSSPVKAGVETTTPSKQSNNKYAASSYLSLTPEQWKSHRSYSCQVTHEGSTVEKTVAPTEC
notes: IgG1; also called anti-TIGIT IgG1 antibody BA148

- EC50 [6]: 0.033 µg/mL
- EC50 (read off the curve) [7]: ~0.03 µg/mL
- IC50 (read off the curve) [8]: ~3 µg/mL
B3: anti-TIGIT×CD96 multispecific molecule BA127 (bispecific antibody, human IgG1, kappa, lambda)
heavy 1: QVQLVQSGAEVKKPGASVKVSCKASGYTFTTYALHWVRQAPGQRLEWMGWINTGSGDTKYSQKFQGRVTITRDTSASTAYMELSSLRSEDTAVYYCARSLGVYYGMDVWGQGTLVTVSSASTKGPSVFPLAPSSKSTSGGTAALGCLVKDYFPEPVTVSWNSGALTSGVHTFPAVLQSSGLYSLSSVVTVPSSSLGTQTYICNVNHKPSNTKVDKRVEPKSCDKTHTCPPCPAPELLGGPDVFLFPPKPKDTLMISRTPEVTCVVVDVSHEDPEVKFNWYVDGVEVHNAKTKPREEQYNSTYRVVSVLTVLHQDWLNGKEYKCKVSNKALPAPIEKTISKAKGQPREPQVYTLPPSREEMTKNQVSLSCAVKGFYPSDIAVEWESNGQPENNYKTTPPVLDSDGSFFLVSKLTVDKSRWQQGNVFSCSVMHEALHNHYTQKSLSLSPG
light 1: not shown
heavy 2: EVQLVQSGAEVKKPGSSVKVSCKASGYTFASYGISWVRQAPGQGLEWMGGITPFFNRVDVAEKFQGRVTITADKSTSTAYIELSSLRSEDTAVYYCARDLRRGGVGDAFDIWGRGTLVTVSSASTKGPSVFPLAPSSKSTSGGTAALGCLVKDYFPEPVTVSWNSGALTSGVHTFPAVLQSSGLYSLSSVVTVPSSSLGTQTYICNVNHKPSNTKVDKRVEPKSCDKTHTCPPCPAPELLGGPDVFLFPPKPKDTLMISRTPEVTCVVVDVSHEDPEVKFNWYVDGVEVHNAKTKPREEQYNSTYRVVSVLTVLHQDWLNGKEYKCKVSNKALPLPEEKTISKAKGQPREPQVYTLPPSREEMTKNQVSLWCLVKGFYPSDIAVEWESNGQPENNYKTTPPVLDSDGSFFLYSKLTVDKSRWQQGNVFSCSVMHEALHNHYTQKSLSLSPG
light 2: QSALTQPRSVSGSPGQSVTISCTGTSPDVGSHAYRSWYQQHPGKAPKLMIYEVSYRPSGVSNRFSGSKSGNTASLTISGLQAEDEADYYCSSYPPSSATVFGAGTKLTVLGQPKAAPSVTLFPPSSEELQANKATLVCLISDFYPGAVTVAWKADSSPVKAGVETTTPSKQSNNKYAASSYLSLTPEQWKSHRSYSCQVTHEGSTVEKTVAPTEC
notes: Anti-CD96 arm = BA139, anti-TIGIT arm = BA150; copies: 1 + 1 + 1 + 1
